Measured values as given in US20100323955A1, “METHODS FOR TREATING OBESITY AND OBESITY RELATED DISEASES AND DISORDERS” (AMYLIN PHARMACEUTICALS, INC., priority 2007, published 2010).

Tests used:
[1] = Example 8: 24-week randomized, double-blind clinical study of pramlintide and metreleptin in overweight and obese subjects; assay type: in vivo, human; details: 4-week lead-in; all subjects received pramlintide 180 then 360 mcg BID; columns name the later randomization groups
Experimental: To evaluate inter alia the safety, tolerability and effect of the combination of an amylin agonist (pramlintide) and a leptin (metreleptin) on changes in body weight, a 24-week, randomized, double-blind, active-drug-controlled, multicenter study was conducted under USFDA approved protocols. Secondary objectives of the study were the determination of the pharmacokinetics of pramlintide and leptin, waist circumference, rate of change in body weight, and patient reported outcomes including for example without limitation perception of well-being related to weight change and mood. The study enrolled overweight and obese subjects with defined BMI ([…]), with enrollment statistics as provided in Table 2. […] Subjects treated with pramlintide/metreleptin lost an average of 25 pounds from the start of the 24-week study compared with an average of 17 pounds for subjects treated with pramlintide alone.
In an initial lead-in phase, all subjects received dietary instructions and treatment with pramlintide at 180 mcg BID for two weeks, followed by pramlintide at 360 mcg BID for two weeks. Subjects who completed the 4-week lead-in period and who lost 2-8 percent body weight during this period were eligible to continue the study. The term “enrolled” (Table 2) refers to subjects (N=177) receiving at least one dose of pramlintide during the lead-in period. […]

[2] = Example 3: leptin effect on body weight in normal HSD versus DIO prone rats; assay type: in vivo, rat; details: FIG. 9
Description: Normal, lean HSD rats were divided into two treatment groups. […] […] The DIO prone animals described herein appear resistant to the weight reducing effect of leptin.

B1: murine leptin (protein, UniProt P41160 22-167, looked up)
Leptin: VPIQKVQDDTKTLIKTIVTRINDISHTQSVSAKQRVTGLDFIPGLHPILSLSKMDQTLAVYQQVLTSLPSQNVLQIANDLENLRDLLHLLAFSKSCSLPQTSGLQKPESLDGVLEASLYSTEVVALSRLQGSLQDILQQLDVSPEC
notes: murine leptin (Peprotech, catalog#450-31)
- Mean Change in Body Weight (kg) over lead-in period [1]: -3.97 kg
- body weight, DIO prone animals ([2]; DIO prone rats, leptin dose printed 500 mg/kg/day): ineffective
- body weight, normal HSD rats ([2]; normal, lean HSD rats, leptin 500 μg/kg/day, 14 days): significant and sustained reduction in body weight
